Experimental findings from patent US20260356921 (published 2026) are described below.

The assay deals with SARS-CoV (2003) RBD (SARS-CoV, UniProt P59594). The experiment in a line: BLI. On the technique in general: BLI is a label-free optical method that tracks binding on a fibre tip over time.

B1: VHH-Fc (antibody, V domains shown)
VH: QVQLQESGGGLVQTGGSLRLSCAASGSFFSINDMGWYRQAPGKQRELVAMITGDDSTNYADSVKGRFTISRDNLKNTVYLQMNSLKPEDTALYYCNAEVKVIIWDSRFNYYWGQGTQVTVSS
As for B1, the Kd (commonly a measure of binding affinity in units of concentration) came to 13 nM.
